Test results: patent US20040053370A1
Several values for one entry are separate records, joined by “and”; a condition that tells them apart may be missing. Equal values may be shown once.

Biological target: GLP-1 receptor
Assay: cell-based or functional assay

GLP-1 Receptor Activation (fold of GLP-1(7-37)OH) | In Vitro Activity (% of Val^8-GLP-1) (% of Val^8-GLP-1) | Substance
2.3 and 2.73 and 3.15 | – | Val^8-Glu^22-Val^25-Ile^33-GLP-1(7-37)OH (peptide)
1.93 | – | Val^8-Trp^16-Glu^22-Ile^33-GLP-1(7-37)OH (peptide)
2.07 | – | Val^8-Trp^16-Glu^22-Val^25-GLP-1(7-37)OH (peptide)
– | 3.3 | Gly^8-GLP-1-IgG1 (from UniProt P01857 99-330) (Fc fusion)

Substance | GLP-1 Receptor Activation (fold of GLP-1(7-37)OH) | In Vitro Activity (% of Val^8-GLP-1) (% of Val^8-GLP-1)
Val^8-Lys^33-Asn^34-GLP-1(7-37)OH (peptide) | 0.09 | –
